Experimental data taken from article PMC3367197 (Nucleic Acids Research, 2012).
Several values for one entry are separate records, joined by “and”; a condition that tells them apart may be missing. Equal values may be shown once.

Legend:
[1] = target: His-tagged human NPM3 (human) (UniProt O75607); assay: native gel or EMSA
[2] = target: His-tagged human NPM3 (human) (UniProt O75607); assay: native MS
His-tagged human NPM1 = His-tagged human NPM1 (human, UniProt P06748 1-294); assay: native gel or EMSA
cross-linking = target: the molecule itself; assay: cross-linking

Chain of His-tagged human NPM1 (P06748 whole entry): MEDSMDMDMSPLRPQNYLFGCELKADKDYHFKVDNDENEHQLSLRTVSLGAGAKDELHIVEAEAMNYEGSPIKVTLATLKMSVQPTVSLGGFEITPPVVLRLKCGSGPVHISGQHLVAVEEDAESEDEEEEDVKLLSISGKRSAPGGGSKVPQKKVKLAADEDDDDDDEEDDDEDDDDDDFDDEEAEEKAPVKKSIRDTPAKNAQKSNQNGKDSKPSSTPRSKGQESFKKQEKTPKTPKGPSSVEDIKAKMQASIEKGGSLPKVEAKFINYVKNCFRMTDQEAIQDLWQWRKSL

His-tagged human NPM3 (from UniProt O75607 1-178) (natural protein)
stoichiometry N [1]: 2 | stoichiometry N [2]: 2

B1: His-tagged human NPM3 (natural protein)
chain: MAAGTAAALAFLSQESRTRAGGVGGLRVPAPVTMDSFFFGCELSGHTRSFTFKVEEEDDAEHVLALTMLCLTEGAKDECNVVEVVARNHDHQEIAVPVANLKLSCQPMLSLDDFQLQPPVTFRLKSGSGPVRITGRHQIVTMSNDVSEEESEEEEEDSDEEEVELCPILPAKKQGGRP
stoichiometry N (His-tagged human NPM1): 4 NPM1 per NPM3 (NPM1:NPM3 4:1)

B2: His-tagged human NPM2 (natural protein)
chain: MNLSSASSTEEKAVTTVLWGCELSQERRTWTFRPQLEGKQSCRLLLHTICLGEKAKEEMHRVEILPPANQEDKKMQPVTIASLQASVLPMVSMVGVQLSPPVTFQLRAGSGPVFLSGQERYEASDLTWEEEEEEEGEEEEEEEEDDEDEDADISLEEQSPVKQVKRLVPQKQASVAKKKKLEKEEEEIRASVRDKSPVKKAKATARAKKPGFKK
stoichiometry N (cross-linking): 5 and 10
